Test system: Escherichia coli TOP10
Experiment: shrunken log2 fold change of peptide-encoding DNA abundance (4.5 h post-induction vs induction); higher = less antimicrobial activity (less host growth inhibition)
Conditions: time post-induction: 4.5 h; library: site-saturation at positions 5, 18, 19, 20
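Note: peptides expressed intracellularly from a pBAD plasmid library in pooled LB shake-flask culture, induced with 0.3% L-arabinose, DNA abundance read by NGS, three biological replicates, DESeq2 with apeglm shrinkage.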

With RRIRARPPRLPRPRPRPTKIPRP the “shrunken log2 fold change” value was 0.272.

RRIRERPPRLPRPRPRPNEPPRP was tested, and the “shrunken log2 fold change” value was -0.129.

For RRIRWRPPRLPRPRPRPYHDPRP, the “shrunken log2 fold change” value was -0.868.

RRIRLRPPRLPRPRPRPFVSPRP was tested, and the “shrunken log2 fold change” value was -0.281.

RRIRSRPPRLPRPRPRPQRDPRP was tested, and the “shrunken log2 fold change” value was -0.117.

For RRIRMRPPRLPRPRPRPSVRPRP, the “shrunken log2 fold change” value was -0.00857.

With RRIRVRPPRLPRPRPRPTPMPRP the “shrunken log2 fold change” value was 0.259.

In the case of RRIRSRPPRLPRPRPRPKPLPRP, the “shrunken log2 fold change” value is reported as -0.107.

With RRIRSRPPRLPRPRPRPHHHPRP the “shrunken log2 fold change” value was -0.736.

For RRIRDRPPRLPRPRPRPHFLPRP, the “shrunken log2 fold change” value was 0.0122.

For RRIRRRPPRLPRPRPRPDGKPRP, the “shrunken log2 fold change” value was 0.0432.

In the case of RRIRDRPPRLPRPRPRPQCEPRP, the “shrunken log2 fold change” value is reported as 0.0364.

With RRIRYRPPRLPRPRPRPAAQPRP the “shrunken log2 fold change” value was 0.466.

In the case of RRIRIRPPRLPRPRPRPVQCPRP, the “shrunken log2 fold change” value is reported as 0.0517.

For RRIRGRPPRLPRPRPRPTMVPRP, the “shrunken log2 fold change” value was 0.786.

RRIRGRPPRLPRPRPRPTRDPRP was tested, and the “shrunken log2 fold change” value was 0.965.

With RRIRIRPPRLPRPRPRPRQGPRP the “shrunken log2 fold change” value was 0.0734.

RRIRRRPPRLPRPRPRPHTDPRP was tested, and the “shrunken log2 fold change” value was -0.215.

RRIRSRPPRLPRPRPRPSKHPRP was tested, and the “shrunken log2 fold change” value was -0.461.

With RRIRMRPPRLPRPRPRPTNNPRP the “shrunken log2 fold change” value was -0.0518.

In the case of RRIRIRPPRLPRPRPRPFADPRP, the “shrunken log2 fold change” value is reported as -0.26.

For RRIRKRPPRLPRPRPRPKQYPRP, the “shrunken log2 fold change” value was -0.222.

For RRIRHRPPRLPRPRPRPLDDPRP, the “shrunken log2 fold change” value was -0.172.

RRIRTRPPRLPRPRPRPPPPPRP was tested, and the “shrunken log2 fold change” value was 0.862.

In the case of RRIRQRPPRLPRPRPRPGCMPRP, the “shrunken log2 fold change” value is reported as 0.175.

RRIRCRPPRLPRPRPRPQWMPRP was tested, and the “shrunken log2 fold change” value was -0.0314.

RRIRYRPPRLPRPRPRPLYHPRP was tested, and the “shrunken log2 fold change” value was -1.11.

In the case of RRIRPRPPRLPRPRPRPHQQPRP, the “shrunken log2 fold change” value is reported as -0.14.

For RRIRQRPPRLPRPRPRPYMTPRP, the “shrunken log2 fold change” value was -0.122.

RRIRDRPPRLPRPRPRPRKKPRP was tested, and the “shrunken log2 fold change” value was 0.0136.

RRIRIRPPRLPRPRPRPCKMPRP was tested, and the “shrunken log2 fold change” value was -0.0175.

In the case of RRIRHRPPRLPRPRPRPVDGPRP, the “shrunken log2 fold change” value is reported as -0.00557.

For RRIRKRPPRLPRPRPRPTWQPRP, the “shrunken log2 fold change” value was 0.58.

With RRIRRRPPRLPRPRPRPDMSPRP the “shrunken log2 fold change” value was -0.433.

With RRIRTRPPRLPRPRPRPMRAPRP the “shrunken log2 fold change” value was 1.

In the case of RRIRLRPPRLPRPRPRPFIDPRP, the “shrunken log2 fold change” value is reported as -0.439.

With RRIRHRPPRLPRPRPRPYLDPRP the “shrunken log2 fold change” value was 0.00552.

RRIRGRPPRLPRPRPRPVSDPRP was tested, and the “shrunken log2 fold change” value was 1.26.

In the case of RRIRHRPPRLPRPRPRPIAMPRP, the “shrunken log2 fold change” value is reported as -0.119.

RRIRNRPPRLPRPRPRPGLNPRP was tested, and the “shrunken log2 fold change” value was 0.035.

For RRIRWRPPRLPRPRPRPPSDPRP, the “shrunken log2 fold change” value was 0.184.

RRIRSRPPRLPRPRPRPYWHPRP was tested, and the “shrunken log2 fold change” value was -0.783.

For RRIRCRPPRLPRPRPRPKGCPRP, the “shrunken log2 fold change” value was 0.00419.

In the case of RRIRTRPPRLPRPRPRPNKEPRP, the “shrunken log2 fold change” value is reported as -0.00295.

With RRIRWRPPRLPRPRPRPEDQPRP the “shrunken log2 fold change” value was 0.475.

With RRIRKRPPRLPRPRPRPSPYPRP the “shrunken log2 fold change” value was -0.0694.

RRIRSRPPRLPRPRPRPKGSPRP was tested, and the “shrunken log2 fold change” value was 0.0118.

For RRIRGRPPRLPRPRPRPHFWPRP, the “shrunken log2 fold change” value was 0.428.

For RRIRPRPPRLPRPRPRPPYWPRP, the “shrunken log2 fold change” value was -0.123.

In the case of RRIRYRPPRLPRPRPRPMYMPRP, the “shrunken log2 fold change” value is reported as -2.38.

RRIRGRPPRLPRPRPRPWKNPRP was tested, and the “shrunken log2 fold change” value was -0.138.

With RRIRDRPPRLPRPRPRPMNNPRP the “shrunken log2 fold change” value was -0.424.

For RRIRCRPPRLPRPRPRPAAVPRP, the “shrunken log2 fold change” value was 0.346.

For RRIRVRPPRLPRPRPRPYFVPRP, the “shrunken log2 fold change” value was 0.263.

In the case of RRIRVRPPRLPRPRPRPRKYPRP, the “shrunken log2 fold change” value is reported as -0.0723.

In the case of RRIRVRPPRLPRPRPRPLNRPRP, the “shrunken log2 fold change” value is reported as -0.328.

For RRIRQRPPRLPRPRPRPCMLPRP, the “shrunken log2 fold change” value was -0.239.

RRIRTRPPRLPRPRPRPFLYPRP was tested, and the “shrunken log2 fold change” value was -0.786.

RRIRTRPPRLPRPRPRPIREPRP was tested, and the “shrunken log2 fold change” value was -0.0125.

RRIRERPPRLPRPRPRPGCVPRP was tested, and the “shrunken log2 fold change” value was 0.118.

RRIRWRPPRLPRPRPRPYVYPRP was tested, and the “shrunken log2 fold change” value was 0.0229.

In the case of RRIRIRPPRLPRPRPRPKPSPRP, the “shrunken log2 fold change” value is reported as 0.128.

In the case of RRIRRRPPRLPRPRPRPFQPPRP, the “shrunken log2 fold change” value is reported as 0.331.

In the case of RRIRIRPPRLPRPRPRPVHHPRP, the “shrunken log2 fold change” value is reported as -0.732.

With RRIRQRPPRLPRPRPRPISFPRP the “shrunken log2 fold change” value was -0.0842.

RRIRNRPPRLPRPRPRPNCRPRP was tested, and the “shrunken log2 fold change” value was -0.0373.

In the case of RRIRDRPPRLPRPRPRPNNWPRP, the “shrunken log2 fold change” value is reported as -0.11.

RRIRDRPPRLPRPRPRPDHTPRP was tested, and the “shrunken log2 fold change” value was 0.0303.

In the case of RRIRWRPPRLPRPRPRPHFYPRP, the “shrunken log2 fold change” value is reported as -0.117.

For RRIRLRPPRLPRPRPRPPWLPRP, the “shrunken log2 fold change” value was 0.439.

For RRIRWRPPRLPRPRPRPDTCPRP, the “shrunken log2 fold change” value was -0.0059.

In the case of RRIRFRPPRLPRPRPRPMVFPRP, the “shrunken log2 fold change” value is reported as -0.0469.

With RRIRVRPPRLPRPRPRPADKPRP the “shrunken log2 fold change” value was -0.0503.

For RRIRCRPPRLPRPRPRPPCAPRP, the “shrunken log2 fold change” value was 0.354.

In the case of RRIRKRPPRLPRPRPRPWCRPRP, the “shrunken log2 fold change” value is reported as -0.189.

RRIRCRPPRLPRPRPRPFTHPRP was tested, and the “shrunken log2 fold change” value was -0.818.

For RRIRMRPPRLPRPRPRPCIEPRP, the “shrunken log2 fold change” value was -0.122.

With RRIRMRPPRLPRPRPRPCGFPRP the “shrunken log2 fold change” value was 0.0233.

For RRIRLRPPRLPRPRPRPLVGPRP, the “shrunken log2 fold change” value was 0.246.

With RRIRARPPRLPRPRPRPIYYPRP the “shrunken log2 fold change” value was -0.182.

RRIRCRPPRLPRPRPRPSFYPRP was tested, and the “shrunken log2 fold change” value was -0.793.

In the case of RRIRMRPPRLPRPRPRPFVSPRP, the “shrunken log2 fold change” value is reported as -0.0194.

With RRIRTRPPRLPRPRPRPAAWPRP the “shrunken log2 fold change” value was 0.754.

RRIRKRPPRLPRPRPRPPACPRP was tested, and the “shrunken log2 fold change” value was 0.197.

For RRIRYRPPRLPRPRPRPLYIPRP, the “shrunken log2 fold change” value was -0.999.

In the case of RRIRWRPPRLPRPRPRPKTDPRP, the “shrunken log2 fold change” value is reported as 0.204.

In the case of RRIRLRPPRLPRPRPRPLCKPRP, the “shrunken log2 fold change” value is reported as -0.398.

RRIRMRPPRLPRPRPRPRFAPRP was tested, and the “shrunken log2 fold change” value was 0.728.

With RRIRNRPPRLPRPRPRPGQPPRP the “shrunken log2 fold change” value was 0.0308.

With RRIRNRPPRLPRPRPRPKRFPRP the “shrunken log2 fold change” value was 0.0343.

For RRIRIRPPRLPRPRPRPFRFPRP, the “shrunken log2 fold change” value was -0.392.

In the case of RRIRKRPPRLPRPRPRPASVPRP, the “shrunken log2 fold change” value is reported as 0.291.

With RRIRSRPPRLPRPRPRPGCQPRP the “shrunken log2 fold change” value was 0.287.

With RRIRIRPPRLPRPRPRPHEGPRP the “shrunken log2 fold change” value was -0.0113.

In the case of RRIRFRPPRLPRPRPRPCKDPRP, the “shrunken log2 fold change” value is reported as -0.198.

For RRIRVRPPRLPRPRPRPSQWPRP, the “shrunken log2 fold change” value was 0.0963.

For RRIRLRPPRLPRPRPRPWYAPRP, the “shrunken log2 fold change” value was -0.171.

In the case of RRIRIRPPRLPRPRPRPSWPPRP, the “shrunken log2 fold change” value is reported as -0.227.

In the case of RRIRERPPRLPRPRPRPKKTPRP, the “shrunken log2 fold change” value is reported as -0.0747.

For RRIRLRPPRLPRPRPRPKNAPRP, the “shrunken log2 fold change” value was -0.238.

With RRIRKRPPRLPRPRPRPYDEPRP the “shrunken log2 fold change” value was -0.293.

RRIRRRPPRLPRPRPRPLGVPRP was tested, and the “shrunken log2 fold change” value was 0.238.

RRIRWRPPRLPRPRPRPKWKPRP was tested, and the “shrunken log2 fold change” value was 0.401.

For RRIRSRPPRLPRPRPRPCLYPRP, the “shrunken log2 fold change” value was -0.198.

With RRIRVRPPRLPRPRPRPTEDPRP the “shrunken log2 fold change” value was -0.113.

RRIRFRPPRLPRPRPRPHCTPRP was tested, and the “shrunken log2 fold change” value was -0.268.

For RRIRCRPPRLPRPRPRPPPRPRP, the “shrunken log2 fold change” value was 1.9.

RRIRSRPPRLPRPRPRPSIFPRP was tested, and the “shrunken log2 fold change” value was -0.511.

For RRIRSRPPRLPRPRPRPSSWPRP, the “shrunken log2 fold change” value was 0.206.

For RRIRLRPPRLPRPRPRPMWEPRP, the “shrunken log2 fold change” value was 0.00629.

For RRIRPRPPRLPRPRPRPMVWPRP, the “shrunken log2 fold change” value was 0.212.

In the case of RRIRWRPPRLPRPRPRPGDHPRP, the “shrunken log2 fold change” value is reported as -0.0565.

RRIRMRPPRLPRPRPRPSAWPRP was tested, and the “shrunken log2 fold change” value was 1.75.

With RRIRYRPPRLPRPRPRPNPGPRP the “shrunken log2 fold change” value was -0.000104.

RRIRKRPPRLPRPRPRPVQLPRP was tested, and the “shrunken log2 fold change” value was 0.349.

In the case of RRIRVRPPRLPRPRPRPYNRPRP, the “shrunken log2 fold change” value is reported as -0.0579.

With RRIRFRPPRLPRPRPRPDQFPRP the “shrunken log2 fold change” value was -0.221.

RRIRVRPPRLPRPRPRPDDFPRP was tested, and the “shrunken log2 fold change” value was 0.0492.

With RRIRLRPPRLPRPRPRPYRRPRP the “shrunken log2 fold change” value was 0.0203.

RRIRGRPPRLPRPRPRPDCWPRP was tested, and the “shrunken log2 fold change” value was 1.58.

In the case of RRIRERPPRLPRPRPRPIGPPRP, the “shrunken log2 fold change” value is reported as -0.138.

RRIRYRPPRLPRPRPRPNHNPRP was tested, and the “shrunken log2 fold change” value was -1.23.

For RRIRNRPPRLPRPRPRPQTHPRP, the “shrunken log2 fold change” value was -0.217.

RRIRARPPRLPRPRPRPTSRPRP was tested, and the “shrunken log2 fold change” value was 0.119.

For RRIRERPPRLPRPRPRPIYVPRP, the “shrunken log2 fold change” value was -1.09.

From the supplement of paper PMC9112550, “Optimization of the antimicrobial peptide Bac7 by deep mutational scanning” (BMC Biology, 2022)
